From publication PMC9414842

Target: human large conductance voltage- and calcium-activated potassium channel (hBK) (human) (UniProt Q12791)
Assay: cryo-EM structure; random spherically constrained (RSC) single-particle cryo-EM of hBK reconstituted into POPC liposomes, without Ca2+ (20 mM HEPES pH 7.4, 150 mM KCl, 2 mM EDTA); map with C2 symmetry at 3.48 Å

human large conductance voltage- and calcium-activated potassium channel (hBK), Q12791 1-1236 (natural protein; other documents disagree on this pair), sequence (Q12791 whole entry): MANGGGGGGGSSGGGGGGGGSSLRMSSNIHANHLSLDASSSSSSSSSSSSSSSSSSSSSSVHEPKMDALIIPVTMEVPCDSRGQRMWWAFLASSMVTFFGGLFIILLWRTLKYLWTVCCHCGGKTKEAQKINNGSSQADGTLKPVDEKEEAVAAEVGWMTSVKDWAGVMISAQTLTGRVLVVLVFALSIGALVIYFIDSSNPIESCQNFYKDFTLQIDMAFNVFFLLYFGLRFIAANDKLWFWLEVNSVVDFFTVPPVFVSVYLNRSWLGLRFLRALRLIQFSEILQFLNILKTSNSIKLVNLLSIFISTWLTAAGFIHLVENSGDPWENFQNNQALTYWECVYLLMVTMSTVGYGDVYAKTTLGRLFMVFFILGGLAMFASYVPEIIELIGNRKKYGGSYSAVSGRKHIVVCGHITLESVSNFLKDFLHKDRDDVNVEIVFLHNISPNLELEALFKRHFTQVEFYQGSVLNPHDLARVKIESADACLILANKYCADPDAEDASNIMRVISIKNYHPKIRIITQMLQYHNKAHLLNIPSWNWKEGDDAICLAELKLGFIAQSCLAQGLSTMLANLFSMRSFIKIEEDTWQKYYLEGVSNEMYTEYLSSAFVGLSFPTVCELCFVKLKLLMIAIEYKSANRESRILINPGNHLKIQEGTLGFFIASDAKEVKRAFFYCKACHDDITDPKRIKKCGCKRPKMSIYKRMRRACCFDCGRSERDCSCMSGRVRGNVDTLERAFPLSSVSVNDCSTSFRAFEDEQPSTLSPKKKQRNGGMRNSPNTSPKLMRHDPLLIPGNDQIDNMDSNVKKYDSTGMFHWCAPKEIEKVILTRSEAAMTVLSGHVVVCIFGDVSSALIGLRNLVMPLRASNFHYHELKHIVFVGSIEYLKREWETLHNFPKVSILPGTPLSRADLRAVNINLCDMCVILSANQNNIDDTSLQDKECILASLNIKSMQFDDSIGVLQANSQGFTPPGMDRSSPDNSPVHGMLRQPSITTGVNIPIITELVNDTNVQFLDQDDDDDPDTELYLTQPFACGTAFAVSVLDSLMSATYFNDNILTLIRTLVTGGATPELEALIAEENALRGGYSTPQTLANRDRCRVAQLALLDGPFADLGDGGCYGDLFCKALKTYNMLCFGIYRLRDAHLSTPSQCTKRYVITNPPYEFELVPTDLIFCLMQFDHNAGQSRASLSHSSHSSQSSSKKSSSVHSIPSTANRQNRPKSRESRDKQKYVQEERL

Substance: human large conductance voltage- and calcium-activated potassium channel (hBK), Q12791 1-1236 (natural protein; other documents disagree on this pair)
- stoichiometry N: 4
